Experimental data: the RNAGym collection of RNA variant scans (doi:10.7554/elife.80360)

B1: CPEB3 Ribozyme (parent)
chain: GGGGGCCACAGCAGAAGCGUUCACGUCGCGGCCCCUGUCAGAUUCUGGUGAAUCUGCGAAUUCUGCUGU

Variants of: B1
Test: self-cleavage, relative activity (ratio to wild type); higher = more cleavage; co-transcriptional

Variant | self-cleavage
G17U C57U | 0.228
G17C G68C | 0.242
G17C G68A | 0.331
G17C C24G | 0.208
G17C C24A | 0.141
G17C C24U | 0.109
G17U C35G | 0.227
G17U C35U | 0.338
G17U C35A | 0.214
G17U G19U | 0.123
G17U G19A | 0.209
G17C G19A | 0.103
G17C G19U | 0.0627
G17C G19C | 0.118
G17C G31U | 0.103
G17C G31C | 0.14
G17C U21C | 0.0625
G17C U21G | 0.229
G17C U61C | 0.118
G17C U61G | 0.205
G17U A60U | 0.229
G17U A60C | 0.185
G17U A60G | 0.248
G17U C22G | 0.112

Variant | self-cleavage
G17U C22A | 0.132
G17U C22U | 0.169
G17U A52C | 0.5
G17U A52G | 0.585
G17C A23C | 0.178
G17C A23G | 0.116
G17C A23U | 0.103
G17C G48U | 0.194
G17C G48C | 0.158
G17C C66U | 0.152
G17C U38C | 0.137
G17C U38G | 0.101
G17C U67C | 0.145
G17C U67G | 0.209
G17U C39G | 0.289
G17U C39A | 0.167
G17C A42C | 0.14
G17C A42U | 0.151
G17C A52U | 0.133
G17C A52G | 0.196
G17U A59U | 0.147
G17U A59G | 0.357
G17C C18U | 0.169
G17U G28A | 0.108

Variant | self-cleavage
G17U G28C | 0.11
G17C A51U | 0.173
G17C A51G | 0.126
G17C C32U | 0.136
G17C C32A | 0.113
G17C C35A | 0.135
G17C C29A | 0.367
G17U A40U | 0.149
G17C U20G | 0.132
G17C U20A | 0.123
G17C G41C | 0.156
G17C G41U | 0.123
G17U C24G | 0.0814
G17U C24A | 0.133
G17U C24U | 0.179
G17C G65U | 0.131
G17C G65A | 0.158
G17C C34A | 0.18
G17C C34U | 0.174
G17C C34G | 0.157
G17C U55C | 0.138
G17C U55G | 0.062
G17C U43C | 0.111
G17C U43G | 0.0986

Variant | self-cleavage
G17C U43A | 0.0954
G17U A42U | 0.334
G17U A42C | 0.299
G17C G56C | 0.105
G17C G56U | 0.115
G17C G56A | 0.103
G17U C18U | 0.155
G17U C18A | 0.137
G17U C18G | 0.138
G17C G50A | 0.142
G17C G50U | 0.157
G17C C27A | 0.129
G17C C27G | 0.156
G17C C45U | 0.121
G17C C45G | 0.142
G17C U53G | 0.126
G17C G25U | 0.107
G17C G25A | 0.15
G17C G25C | 0.12
G17U C66G | 0.24
G17U C63U | 0.322
G17U C63A | 0.182
G17U C63G | 0.229
G17C U36G | 0.163

Variant | self-cleavage
G17C U36A | 0.18
G17C C57U | 0.18
G17C C57A | 0.147
G17U G25A | 0.143
G17U G25C | 0.107
G17U G31A | 0.191
G17U C32A | 0.154
G17U C54G | 0.166
G17C C54A | 0.1
G17C C54G | 0.166
G17C U64A | 0.112
G17C U64G | 0.171
G17C U64C | 0.203
G17C C39A | 0.081
G17C C39G | 0.115
G17C U49A | 0.149
G17C U49C | 0.158
G17C U49G | 0.148
G17U C33U | 0.347
G17U C33A | 0.228
G17C A40C | 0.16
G17C A40U | 0.14
G17C A40G | 0.124
G17U A51U | 0.43

Variant | self-cleavage
G17U A51G | 0.569
G17U A51C | 0.423
G17C U69G | 0.303
G17C U69A | 0.246
G17U G30U | 0.168
G17U G30C | 0.119
G17C G37C | 0.0977
G17C G37A | 0.0971
G17C U46A | 0.122
G17C U46C | 0.119
G17C U46G | 0.101
G17C C22A | 0.117
G17C C22G | 0.156
G17C U62G | 0.201
G17C U62A | 0.171
G17C U26G | 0.175
G17C U26C | 0.145
G17C U26A | 0.156
G17C G28C | 0.129
G17C G28A | 0.127
G17C G28U | 0.111
G17U C29G | 0.885
G17U C29U | 0.268
G17U C29A | 0.921

Variant | self-cleavage
G17C G30U | 0.206
G17C G30C | 0.134
G17C G30A | 0.154
G17U C27G | 0.185
G17U C27A | 0.132
G17C C33U | 0.139
G17C C33A | 0.152
G17C C63U | 0.139
G17C C63G | 0.103
G17U C45U | 0.528
G17U C45G | 0.395
G17C G47C | 0.212
G17C A60C | 0.109
G17C A60U | 0.183
G17C A60G | 0.127
G17C G58U | 0.227
G17C G58C | 0.198
G17C G58A | 0.139
G17U C34U | 0.514
G17U C34G | 0.177
G17C A59U | 0.0945
G17U A23C | 0.462
G17U A23G | 0.331
